# Laboratory results: US20200239537
# Key:
# [1] = test system: N-MeLeu9-apelin-17 A2 (11)
# Chain of recombinant human plasma kallikrein KLKB1 (rhKLKB1, Novoprotein) (chain, as listed by the source): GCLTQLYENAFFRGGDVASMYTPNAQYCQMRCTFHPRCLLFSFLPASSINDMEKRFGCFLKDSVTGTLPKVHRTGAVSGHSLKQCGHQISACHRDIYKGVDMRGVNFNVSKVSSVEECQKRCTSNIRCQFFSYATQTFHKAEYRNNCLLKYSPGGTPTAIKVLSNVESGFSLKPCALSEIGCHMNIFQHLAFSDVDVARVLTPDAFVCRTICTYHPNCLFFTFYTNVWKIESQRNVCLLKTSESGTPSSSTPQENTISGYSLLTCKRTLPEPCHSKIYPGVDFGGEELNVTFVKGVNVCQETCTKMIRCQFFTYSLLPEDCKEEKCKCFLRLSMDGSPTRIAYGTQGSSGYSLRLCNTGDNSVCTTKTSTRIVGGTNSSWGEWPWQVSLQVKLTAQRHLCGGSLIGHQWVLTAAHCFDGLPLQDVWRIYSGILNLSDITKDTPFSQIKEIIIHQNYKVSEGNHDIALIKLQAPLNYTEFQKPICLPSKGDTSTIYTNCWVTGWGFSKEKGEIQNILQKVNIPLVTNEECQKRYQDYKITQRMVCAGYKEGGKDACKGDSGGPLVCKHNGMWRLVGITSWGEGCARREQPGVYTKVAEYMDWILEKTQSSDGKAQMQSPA
substance,measurement,setting,value
"recombinant human plasma kallikrein KLKB1 (rhKLKB1, Novoprotein)",Km,apelin-17 (2),97 µM
same,kcat (1/S),apelin-17 (2),13.7 1/S
same,kcat/Km (1/MS),apelin-17 (2),140000 1/MS
same,Km,apelin-17 A2 (5),30 µM
same,kcat (1/S),apelin-17 A2 (5),1.4 1/S
same,kcat/Km (1/MS),apelin-17 A2 (5),47000 1/MS
same,Km,[1],245 µM
same,kcat (1/S),[1],16.5 1/S
same,kcat/Km (1/MS),[1],67000 1/MS
